CD2 positive cell recovery rate (%) and CD8 positive cell recovery rate (%) data for 2 substances are collected here from patent US20100069815A1.

In test [1] the target is CD2 on CD2 positive cells in human peripheral blood (human) (UniProt P06729). In words: specificity control, cells recovered after the column (not adsorbed), with biotin block; flow cytometry; mean ± SD of 3.
Test [2] has the same target. Put plainly: specificity control, cells recovered after the column (not adsorbed), without biotin block; flow cytometry; mean ± SD of 3.
For test [3], the target named is CD8 on CD8 positive cells in human peripheral blood (human) (UniProt P01732). Put plainly: specificity control, cells recovered after the column (not adsorbed); flow cytometry; mean ± SD of 3.
Sequence of CD8 on CD8 positive cells in human peripheral blood (human) (P01732 22-235): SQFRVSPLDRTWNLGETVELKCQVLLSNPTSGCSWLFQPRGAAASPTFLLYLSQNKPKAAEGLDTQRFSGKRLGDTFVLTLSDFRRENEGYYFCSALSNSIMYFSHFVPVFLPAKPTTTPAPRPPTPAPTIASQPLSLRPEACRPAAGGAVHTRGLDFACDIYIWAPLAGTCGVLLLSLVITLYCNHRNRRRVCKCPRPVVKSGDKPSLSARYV

Sequence of CD2 on CD2 positive cells in human peripheral blood (human) (P06729 25-351): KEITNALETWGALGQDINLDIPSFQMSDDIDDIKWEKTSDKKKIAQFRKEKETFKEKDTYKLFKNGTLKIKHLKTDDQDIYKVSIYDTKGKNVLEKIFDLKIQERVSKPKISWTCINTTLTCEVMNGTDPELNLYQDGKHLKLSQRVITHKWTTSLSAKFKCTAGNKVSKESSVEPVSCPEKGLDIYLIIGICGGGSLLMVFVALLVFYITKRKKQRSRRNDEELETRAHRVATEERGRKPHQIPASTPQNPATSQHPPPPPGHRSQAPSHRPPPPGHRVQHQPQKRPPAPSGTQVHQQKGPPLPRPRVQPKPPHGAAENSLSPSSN

4G7 scFv-SA: the values for the CD2 positive cell recovery rate (%) in test [1] and in test [2] were 78.7% and 76.4%, respectively.
In test [3], Leu3a scFv-Normal gave a CD8 positive cell recovery rate (%) of 78.9%.
